The text below walks through data of patent US20240218057A1 (ROCKEFELLER UNIVERSITY, published 2024).

B1: C1016 (antibody, V domains shown)
VH: QVQLQESGPGLVKPSGTLSLTCAVSGGPISSNHWWSWVRQPPGKGLEWIGEVYRNGNTNYHPSLKSRVTMSIDNSKNQFSLSLTSVTAADTAVYYCARGGDLAMGPEYLDFWGQGTLVTVSS
VL: QSALTQPASVSGSPGQSITISCTGTSSDVGANNYVSWYQQHPGKAPKLMIYDVINRPSGVSDRFSGSKSGNTASLTISGLQAEDEADYYCSSFSTSSTLLFGGGTKLTVL
notes: IgG; V domains only
B2: C1001 (antibody, V domains shown)
VH: QVQLQESGPGLVKPSQTLSLTCTVSGGSISSGDYYWTWIRQPPGKGLEWIGYIFYSGITYYSPSLKSRLTMSIDTSKSQFSLNLSSVTAADTAVYYCARWKRLLQSLHFDYWGQGILVTVSS
VL: QSALTQPRSVSGSPGQSVTISCTGTSSDVGSYDYVSWYQQHPGKAPKVMIYGVDERPSGVPHRFSGSKSGNTASLTISGLQADDEADYFCCFYAGSYTLLFGGGTKVTVL
notes: IgG; V domains only
B3: C1019 (antibody, V domains shown)
VH: QVQLVESGGGVVQPGTPLRLSCAASGFTFSSYAMHWVRQAPGKGLEWVAMISYDGGNKYYADSVKGRFTISRDNSKNTLFLQMNSLRGEDTAVYYCARSFSIRIGHKDNWGQGTLVTVSS
VL: NFMLTQPHSVSESPGKTVTISCTGSSGSIANNYVQWYQQRPGSAPTPVIYEDDQRPSGVPDRFSGSIDSSSNSASLSISGLKTEDEADYYCQSYDSTNFWVFGGGTKLTVL
notes: IgG; V domains only
B4: C1003 (antibody, V domains shown)
VH: QVQLVESGGGVVQPGRSLRLSCAASGFAFSSYGMNWVRQAPGKGLEWVTTVSSDGNVNYYIDSVKGRFTISRDNSKNTLYLQMNSLRGDDTAVYYCAKGPRFGWSYRGGSGFDIWGQGTMVTVSS
VL: DIQMTQSPSSLSASVGDRVTITCQASQDISNYLNWYQQKPGKAPKLLIYDASNLETGVPSRFSGSGSGTDFTFTITSLQPEDIATYYCQQYDNLPITFGQGTRLEIK
notes: IgG; V domains only
B5: C1014 (antibody, V domains shown)
VH: QVQLQESGPGLVRPSQTLSLTCTVSGGSIGSGAYWSWIRQHPAKGLEWIGYVYYSGSTFYNPSLETRVSISVDISKDQFSLELTSVTVADTAVYYCAREKIEVVSIEMRPHYYGIDVWGQGTTVTVSS
VL: EIVMTQSPATLSVSPGERATLSCRASQSISSNLAWYQQKPGQPPRLLIYGASTRATGIPARFSGSGSGTEFTLTISSLQSEDIAVYYCQHYNNWPPWTFGQGTKVDIK
notes: IgG; V domains only
B6: C1006 (antibody, V domains shown)
VH: QVQLVQSGAEVRKPGSSVKVSCKASGGPFDQYTFSWVRQAPGQGLEWMARITPVVDLTNYAQKFQGRITIITDKSTSTAYMELSSLRSEDTAIYYCATPLNDYYASGNLGLWGQGTLVTVSS
VL: DIQMTQSPSSLSASIGDRVTITCRASQGISYYLAWFQQKPGEAPRSLIYDASSLQSGVPSKFSGSGSGTDFTLTISSLQPEDSATYYCQQYNSYPLTFGGGTKVEIK
notes: IgG; V domains only
B7: C1007 (antibody, V domains shown)
VH: QVQLVQSGSEMKKPGSSVKVSCKAAGGTLNTHTFSWVRQAPGQGLEWMGRITPTVDLTNYAQKFQGRITITADTSTNTAYLELRRLRSEDTAIYYCATPLNDYYASGNLGLWGQGTLVTVSS
VL: DIQMTQSPSSLSASIGDTVTITCRASQGISYYLAWFQRKPGKAPKSLIYDASSLQSGVPSKFSGSGSGTDFTLTISSLQPEDSATYYCQQYSTYPLTFGGGTKVEIK
notes: IgG; V domains only
B8: C1018 (antibody, V domains shown)
VH: QVQLVESGGGVVQPGRSLRLLCAASGFTFNTHGMHWVRQAPGKGLEWVAVIWFDGSNKYYADSVKGRFTISRDNSTNTLYLQMNSLRAEDTAVYYCARVYGGLPYYYAIDVWGQGTTVTVSS
VL: QSVLTQPPSVSGAPGQRVTISCAGSSSNIGAGYGVHWSQQLPGRPPKLLIYGDSNRPSGVPDRFSGSNSGTSASLAITGLQAEDEAVYYCQSYDRSLRAWVFGGGTKLSVL
notes: IgG; V domains only
B9: C997 (antibody, V domains shown)
VH: EVQLLESGGGLVQPGGSLRLSCAASGFTFSKDAMSWVRQAPGKGLEWVSTVTGSGTNTYYADSVKGRFTISRDNSNNTLYLQMNSLRAEDTAVYYCANHPLGAAEGYYYYYMDVWGKGTTVTVSS
VL: EIVLTQSPGTLSLSPGERGTLSCRASQRVPSSQLAWYQQKSGQAPRLLIYGASSRASGIPDRFSGSGSGTDFTLNISRLEPEDFAVYYCQQYGSLRALTFGGGTKVEIK
notes: IgG; V domains only
B10: C1012 (antibody, V domains shown)
VH: QVQLVQSGAEVKKPGSSVKVSCKASGGTVNNYAINWVRQAPGQGLEWMGGIVPIFGTPNYAQKFQGRVTITADESTSTAYMELSSLRSEDTAVYYCAKVSLTLPIAAAPRFWFDSWGQGTLVTVSS
VL: EIVMTQSPATLSVSPGERATLSCRASQSVSSHLAWYQQKPGQAPRLLIYGASTRATGIPARFSGSGSGTEFTLTISSLQSEDFAVYYCQQYHNWPPALTFGGGTKVEIK
notes: IgG; V domains only
B11: C1013 (antibody, V domains shown)
VH: QVQLVQSGVEVKKPGSSVKVSCKASGGTFTDYAFSWVRQAPGQGLEWMGGIVPIFATPDYAEKFRGRVTITADESTSTAYMELSTLKSEDTAVYYCARASLTLPIRAAPRFWFDAWGQGTLVTVSS
VL: EIVMTQSPATLSVSPGERATLSCRASQGVSTHLAWYQQKPGQAPRLLIYGASTRATGIPARFSGSGSGTEFTLTISSLQSEDFAVYYCQQYHKWPPALTFGGGTKVEIK
notes: IgG; V domains only
B12: C998 (antibody, V domains shown)
VH: QVQLVQSGAEVKKPGASVKVSCKTSGYTFISYYIHWVRQAPGQGLEWMGIINPDGDNTNYAQKFQGRVTMTRDTSTSTVYMELSSLRFEDTAVYYCARGGAIPALRTAFDIWGQGTMVTVSS
VL: DIQMTQSPSTLSASVGDRVTITCRASQSISNWLAWYQQKPGKAPKLLIYKASSLESGVPSRFSGSGSGTEFTLTISSLQPDDFATYYCQEYNSYYFGQGTKLEIK
notes: IgG; V domains only
B13: C999 (antibody, V domains shown)
VH: QVQLVQSGAEVRRPGASVKVSCKASGYTLTHYYIHWVRQAPGQGLEWVGIINPDGDNTNYAQKFQGRVTMTRDTSTSTVYMELSSLRSEDTAIFYCARGGAIPALRSAFDIWGQGTMVTVSS
VL: DIQMTQSPSTLSASVGDRVTITCRASQSINNWLAWYQQKPGKAPKLLIYKASTLESGVPSRFSGSGSGTEFTLTISSLQPDDFATYYCQQYNSYFFGQGTKLEIK
notes: IgG; V domains only
B14: C1000 (antibody, V domains shown)
VH: QVQLQESGPGLVKPSQTLSLSCTVSGGSISSDDYYWSWIRQPPGKGLEWIGYIYYSGSTYYNSSLKSRVSISVDTSKNQFSLKLSSVTAADTAVYYCARWKRWLQFLYFDYWGQGTLVTVSS
VL: QSALTQPRSVSGSPGQSVTISCTGTSSDVGGYSFVSWYQQHPGKAPKVLIYDVDKRPSGVPDRLSGSKSGNTASLTISGLQAEDEADYYCCSYAGSYTLIFGGGTKLTVL
notes: IgG; V domains only
B15: C1008 (antibody, V domains shown)
VH: EVQLVESGGGLIQPGGSLRLSCAASGFTVSSNYMSWVRQAPGKGLEWVSVIYSGGSTYYADSVKGRFTISRDNSKNTLYLQMNSLRAEDTAVYYCARVVGYDFWSGYDGGYFDYWGQGTLVTVSS
VL: QSALTQPASVSGSPGQSITISCTGTSSDVGSYNLVSWYQQHPGKAPKLMIYEVSKRPSGVSNRFSGSKSGNTASLTISGLQAEDEADYYCCSYAGSSTWVFGGGTKLTVL
notes: IgG; V domains only
B16: C1009 (antibody, V domains shown)
VH: EVQLVESGGGLLQPGGSLRLSCAASGFSVSSNYMTWVRQAPGKGLEWVAAIYSGDSTYYVDSVKGRFIISRDNSKNTVYLHLSSLRAEDTAVYYCARLVGYDFRSGSDGGYFDYWGHGTLVTVSS
VL: QSALTQPASVSGSPGQSITISCTGTSSDIGNYNLVSWYQQHPGKAPKLMIYDVSKRPSGVSNRFSGSKSGNTASLTISGLQAEDETDYYCCSYAGSSTWVFGGGTKLTVL
notes: IgG; V domains only
B17: C1020 (antibody, V domains shown)
VH: QVQLVQSGAEVKKPGASVKISCKASGYSFSNYYIHWVRQAPGQGLEWMGIINPSGNSISYAQKFQGRVTMTGDTSTSTVYMELSSLRSEDTAVYYCARSVFPVPAAGGCDYWGQGTLVTVSS
VL: DIQMTQSPSSLSASVGDRVTITCRASQSITTSLNWYQQKPGKAPKLLIYSASTLESGVPSRFSGSGSGTDFTLTISSLQPEDFATYYCQQTYRAPPYTFGQGTKLEIK
notes: IgG; V domains only
B18: C1002 (antibody, V domains shown)
VH: EVQLVESGGGLVQPGGSLRLSCAASEFIVSSNYMTWVRQAPGKGLEWVSIMYPGGSTFYADSVKGRFTISRDNSKNTLYLQINRLRAEDTAVYYCARDIAGRLDYWGQGTLVTVSS
VL: DIQMTQSPSSLSASVGDRVTITCQASQDINNYLNWYQQKPGKAPKLLIYDASNLETGVPSRFSGSGSGTDFSFTISSLQPEDIATYYCQQYDNLSRLTFGGGTKVEIK
notes: IgG; V domains only
B19: C1011 (antibody, V domains shown)
VH: QVQLVESGGGVVQPGRSLRLSCAVSGFTFSHYAMHWVRQAPGKGLEWVAVISYDGADKYYADSVRGRFTIARDNSKNTLFLQMSSLRPEDTAVYYCAKKGQPYCGGDCHFYYLDYWGQGTLVTVSS
VL: DIQMTQSPSSLSASVGDRVTITCQASQDISNHLNWYQQKPGKAPKLLIYDASNLETGVPSRFSGSGSGTDFTFTISSLQAEDIATYYCQQYDNLPPITFGQGTRLEIK
notes: IgG; V domains only
B20: C1010 (antibody, V domains shown)
VH: QVQLVESGGGVVQPGRSLRLSCAASGFTFSSYAMHWVRQAPGKGLEWVAVISYDGSNKYYADSVKGRFTISRDNSKNTLYLQMNSLRAEDTAVYYCAKKGQPYCGGDCYFYYFDYWGQGTLVTVSS
VL: DIQMTQSPSSLSASLGDRVTITCQASQDISNYLNWYQQKPGKAPKLLIYDASNLETGVPSRFSGSGSGTDFTFTISSLQPEDIATYYCQQYDNLPPITFGQGTRLEIK
notes: IgG; V domains only
B21: C995 (antibody, V domains shown)
VH: EVQLVESGGGLIQPGRSLRLSCTASGFSVGDYAMSWFRQAPGKGLEWVGFLRNQHYGGTAEYAASVKGRFSISTDASKNIVYLQMDSLKTEDTAVYYCARNDRYIVIVPAEMLYWGQGTLVTVSS
VL: EIVMTQSPATLSVSPGERATLSCRATESVYSNLAWYQQKPGQAPRLLMYDASTRAPGIPARFSGSGSGTEFTLTISSLQSEDFATYYCQQYSNWPPITFGQGTRLEIK
notes: IgG; V domains only

This assay has as its target T1, SARS-COV-2 RBD (SARS-COV-2, UniProt P0DTC2 319-539).
T1 construct: also called WT RBD
Nature of the assay: ELISA, RBD coated.
In turn, B1 gave an EC50 of 2.16 ng/mL.

Take B2: the EC50 turned out to be 3.23 ng/mL.

B3 came in with an EC50 of 2.8 ng/mL.

B4 came in with an EC50 of 1.82 ng/mL.

The molecule B5 came in with an EC50 of 2.95 ng/mL.

Take B6: the EC50 was found to be 2.04 ng/mL.

In turn, B7 showed an EC50 of 3.22 ng/mL. This EC50 is about 1.6-fold higher than that of the molecule before.

The molecule B8 gave an EC50 of 3.09 ng/mL.

B9 showed an EC50 of 3.49 ng/mL.

On to B10, for which the EC50 turned out to be 3.29 ng/mL.

Molecule B11 displayed an EC50 of 8.92 ng/mL.

For B12, the EC50 was determined as 2.51 ng/mL.

B13 displayed a half-maximal effective concentration (EC50) of 2.68 ng/mL.

On to B14, for which the EC50 worked out at 3.2 ng/mL.

Molecule B15 yielded an EC50 of 17.2 ng/mL.

The molecule B16 yielded an EC50 of 1.34 ng/mL.

The molecule B17 came in with an EC50 of 2.06 ng/mL. Against the preceding molecule, the EC50 is about 1.5-fold higher.

B18 gave an EC50 of 0.83 ng/mL.

The molecule B19 returned an EC50 of 1.49 ng/mL.

B20: the EC50 was determined as 2.45 ng/mL.

B21 yielded an EC50 of 3.79 ng/mL.
